Holding throughout (test): fluorescence polarisation; FITC-labeled PhoP1C14 peptide (50 nM) mixed with 0-160 µM of the complex of each PhoEF1A mutant, GTP and PfuPelota; 20 mM HEPES-KOH pH 7.6, 10 mM MgCl2, 150 mM KCl, 0.1 mg/ml BSA; 25 °C; nonlinear regression, one site specific binding (GraphPad Prism 6); average of three replicates
Holding throughout (settings): both partners purified
(Polarisation of emitted light reports the rotation of a fluorescent probe.)

Experiment [1] has as its target T1, PhoEF1A Q326A•GTP•PfuPelota complex (Pyrococcus horikoshii | Pyrococcus …, UniProt O59153 1-428, Q326A).
T1 construct: elongation factor aEF1A of Pyrococcus horikoshii (PhoEF1A); complex of the EF1A mutant, GTP and PfuPelota; also called Q326(R329)A; P. horikoshii aEF1A-Q326A
T1 sequence 1: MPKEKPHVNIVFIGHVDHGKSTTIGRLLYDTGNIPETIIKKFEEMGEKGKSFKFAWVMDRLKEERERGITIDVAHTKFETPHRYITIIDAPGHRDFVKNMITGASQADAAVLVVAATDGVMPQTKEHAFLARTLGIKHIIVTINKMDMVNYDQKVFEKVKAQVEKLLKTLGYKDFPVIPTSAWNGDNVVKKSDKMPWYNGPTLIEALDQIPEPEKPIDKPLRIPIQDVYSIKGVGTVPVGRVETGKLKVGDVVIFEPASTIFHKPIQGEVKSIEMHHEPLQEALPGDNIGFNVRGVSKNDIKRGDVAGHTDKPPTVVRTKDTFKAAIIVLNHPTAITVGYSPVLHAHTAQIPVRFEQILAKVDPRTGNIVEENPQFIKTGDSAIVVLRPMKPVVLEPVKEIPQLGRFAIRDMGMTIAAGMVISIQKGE
T1 sequence 2: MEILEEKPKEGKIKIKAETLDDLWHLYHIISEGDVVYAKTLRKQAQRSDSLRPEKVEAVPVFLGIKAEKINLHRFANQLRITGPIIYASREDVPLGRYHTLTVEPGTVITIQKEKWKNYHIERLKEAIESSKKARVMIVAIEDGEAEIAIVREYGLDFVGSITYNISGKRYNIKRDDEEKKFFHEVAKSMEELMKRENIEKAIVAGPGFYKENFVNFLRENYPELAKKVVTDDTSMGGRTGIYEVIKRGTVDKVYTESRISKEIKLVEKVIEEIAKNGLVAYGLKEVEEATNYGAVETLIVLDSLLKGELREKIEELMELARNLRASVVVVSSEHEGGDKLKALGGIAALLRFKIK

Experiment [2] has as its target T2, PhoEF1A M420S•GTP•PfuPelota complex (Pyrococcus horikoshii | Pyrococcus …, UniProt O59153 1-428, M420S).
T2 construct: elongation factor aEF1A of Pyrococcus horikoshii (PhoEF1A); complex of the EF1A mutant, GTP and PfuPelota; also called M420(I423)S; P. horikoshii aEF1A-M420S
T2 sequence 1: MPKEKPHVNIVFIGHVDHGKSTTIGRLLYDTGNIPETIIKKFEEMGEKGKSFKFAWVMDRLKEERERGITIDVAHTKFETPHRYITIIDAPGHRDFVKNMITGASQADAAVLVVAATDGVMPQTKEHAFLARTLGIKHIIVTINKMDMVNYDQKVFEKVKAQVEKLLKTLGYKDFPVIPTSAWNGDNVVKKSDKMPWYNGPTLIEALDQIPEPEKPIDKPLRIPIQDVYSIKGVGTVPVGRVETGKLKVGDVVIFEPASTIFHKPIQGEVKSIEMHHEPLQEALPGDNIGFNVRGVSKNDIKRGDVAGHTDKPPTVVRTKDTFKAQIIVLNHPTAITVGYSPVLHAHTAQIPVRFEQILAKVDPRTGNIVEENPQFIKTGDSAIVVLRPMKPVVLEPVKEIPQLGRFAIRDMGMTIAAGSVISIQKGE
T2 sequence 2: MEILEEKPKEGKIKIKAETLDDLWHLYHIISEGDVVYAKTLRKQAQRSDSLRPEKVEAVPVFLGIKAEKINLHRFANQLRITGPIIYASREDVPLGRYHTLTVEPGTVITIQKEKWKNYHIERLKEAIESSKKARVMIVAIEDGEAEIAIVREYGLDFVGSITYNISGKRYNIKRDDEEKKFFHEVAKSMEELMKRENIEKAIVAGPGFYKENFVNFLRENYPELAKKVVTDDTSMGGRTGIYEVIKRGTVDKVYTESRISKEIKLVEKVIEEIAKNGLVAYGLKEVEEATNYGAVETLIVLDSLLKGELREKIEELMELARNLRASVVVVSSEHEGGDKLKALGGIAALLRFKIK

The target of experiment [3] is T3, PhoEF1A V398S•GTP•PfuPelota complex (Pyrococcus horikoshii | Pyrococcus …, UniProt O59153 1-428, V398S).
T3 construct: elongation factor aEF1A of Pyrococcus horikoshii (PhoEF1A); complex of the EF1A mutant, GTP and PfuPelota; also called V398(F401)S; P. horikoshii aEF1A-V398S
T3 sequence 1: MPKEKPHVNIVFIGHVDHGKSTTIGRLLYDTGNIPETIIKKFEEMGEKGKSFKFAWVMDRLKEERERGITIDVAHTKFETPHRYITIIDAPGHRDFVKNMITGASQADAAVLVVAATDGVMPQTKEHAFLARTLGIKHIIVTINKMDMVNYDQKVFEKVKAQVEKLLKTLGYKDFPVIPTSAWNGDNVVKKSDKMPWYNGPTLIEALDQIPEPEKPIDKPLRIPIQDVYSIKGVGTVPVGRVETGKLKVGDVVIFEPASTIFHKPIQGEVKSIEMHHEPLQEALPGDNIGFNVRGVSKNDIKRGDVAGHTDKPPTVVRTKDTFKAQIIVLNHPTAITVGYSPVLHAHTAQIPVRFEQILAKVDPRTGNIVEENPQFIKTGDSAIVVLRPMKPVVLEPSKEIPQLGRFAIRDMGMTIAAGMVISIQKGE
T3 sequence 2: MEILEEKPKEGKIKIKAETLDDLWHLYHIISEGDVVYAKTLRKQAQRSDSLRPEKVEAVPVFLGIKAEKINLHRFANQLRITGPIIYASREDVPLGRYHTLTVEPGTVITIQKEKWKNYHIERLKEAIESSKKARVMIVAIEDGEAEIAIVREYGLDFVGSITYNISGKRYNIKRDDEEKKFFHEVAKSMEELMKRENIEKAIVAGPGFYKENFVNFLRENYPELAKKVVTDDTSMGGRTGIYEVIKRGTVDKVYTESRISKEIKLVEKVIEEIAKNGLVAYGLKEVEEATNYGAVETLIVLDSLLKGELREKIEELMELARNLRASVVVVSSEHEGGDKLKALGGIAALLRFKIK

Primed or numbered codes have the meaning given here. Where no end group is shown, it is not given here. FITC′ = fluorescein isothiocyanate label

The term Kd denotes a measure of binding affinity in units of concentration.

B1: FITC-labeled C-terminal 14-mer peptide of P. horikoshii aP1 (PhoP1C14) (peptide)
peptide: {FITC′}-SEEEALAGLSALFG
notes: also called FITC-labeled peptide of PhoP1C14; source: synthetic peptide (Hokkaido System Science Co., Ltd)
Take B1: the results for the Kd in experiment [1], in experiment [2] and in experiment [3] were 11.1 ± 0.8 µM, 80.1 ± 8.7 µM and 38.3 ± 2.8 µM, respectively.

The record behind these values is publication PMC6791870, “Switch of the interactions between the ribosomal stalk and EF1A in the GTP- and GDP-bound conformations” (Scientific Reports, 2019).
